# In the RNAGym collection of RNA variant scans (doi:10.1073/pnas.2313332121):
# B1: TPR t1 (parent)
# chain: GACCAAUCUGCCCUCAGAGCUCGAGAACAUCUUCGGAUGCAGAGGAGGCAGGCUUCGGUGGCGCGAUAGCGCCAACGUCCUCAACCUCCAAUGCAUCCCACCACAUGAUGAUGCCUGAAGAGCCUUGGUUUUUUG
# Variants of: B1
# Test: polymerase ribozyme fitness, log enrichment relative to wild type (log ratio); higher = more active; in vitro selection for triplet polymerase activity
# How it was run: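 Each subunit of a heterodimeric triplet polymerase ribozyme was represented by a PCR-built, transcribed mutant library that underwent triplicate single-round in vitro selection with frozen incubation at −7 °C. Extended constructs were recovered by gel excision, streptavidin-bead capture and RT-PCR, and Illumina sequencing of input and output libraries kept genotypes with ≥10 input reads and ≥1 read per output. Fitness is the logarithm of genotype enrichment relative to wild-type enrichment, from inverse-variance-weighted replicate averages, with a logarithm base of 2.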
row,Variant,polymerase ribozyme fitness (log ratio)
1,G47A G61U,-1.24
2,G45U G120U,-0.652
3,A46G C86G,-1.96
4,G47A C70G,-4.77
5,A46U G48A G128A,-4.23
6,G47A U78G U81A C86U U133G,-1.35
7,A46C C72U U81A A105C,-4.47
8,G45C C89U U133A,-1.58
9,G45U G77U U132C,-1.59
10,A46U C72G,-1.4
11,A46C G60C A68U,-7.2
12,A46U C73A C123G G127A,-0.933
13,A46U G107U,-5.66
14,G45A U59A A83C C114G G122C,-4.2
15,G45A G63A A95G C101G U130C,-3.14
16,G45U C114U A121U,-1.71
17,A46G G51U,-2.98
18,G47A C56A G113U C114A A121G,-2.45
19,A46C U54A G120U,-0.501
20,A46U C56A G93A G120A C123U,-1.16
21,G45U U116G,-3.76

row,Variant,polymerase ribozyme fitness (log ratio)
1,G45A G63A,-1.39
2,A46C G113A G128A,-4.59
3,G47U C70U,-1.87
4,A46C C56A G110U,-2.45
5,A46G G117C,-3.96
6,G47A C88U,-0.911
7,G45C G51A U78A C123G,-2.51
8,G47C A90U,-4.3
9,G45C C53A G120A U129G,-1.07
10,G45U G110A,-2.13
11,G45A G61A G110U U125C,-0.661
12,A46C C49G C73U,-1.01
13,G45A A105G,-3.69
14,A46U G58C C70A,-2.22
15,G45A C89U U133A,-1.52
16,G47A C124G,0.559
17,G45U C62U U112G U126A G128A U130A,-3.11
18,G45A G60U C64U C94U A105U C124A G127A,-5.55
19,A46U G48A C62U,-2.23
20,G47A C72G,-0.62
21,G47A U54A A90G U131G,-0.834

row,Variant,polymerase ribozyme fitness (log ratio)
1,A46U C53A A111U,-4.45
2,G45A C53A U109G G110U A121U,-3.48
3,G45U C56U A121U,0.651
4,G45A U55C C62A C89G,-3.49
5,A46U A74C U96A,-1.66
6,A46C G60U,-0.736
7,G47A A95C,-1.79
8,G45U G69U A119U,-0.819
9,G45C C53G U81A A91C,-4.15
10,A46G A108G G117A,-4.03
11,A46C U112G G122U G135U,-2.04
12,A46G,-0.119
13,A46C,-0.983
14,A46U,-1.11
15,A46U U112A,0.36
16,G47C C88A C124A,-0.557
17,G45U C76G U112A A121U,0.648
18,G47C G58A U112A G117U,-3.44
19,G47A C79U A100U A111U G120A U125G U131A U132C,-6.42
20,A46U G52A U109C C124G,-7.25
21,A46C G52U C88A G110A A118G U126C,-3.39

row,Variant,polymerase ribozyme fitness (log ratio)
1,A46G G127A,-1.96
2,G45U C72A U87A A121C,0.113
3,G45A C72U A91G U129A,-3.43
4,A46U G122U,-0.865
5,G45U C124G U133A,0.519
6,A46C C73G U87C,-1.35
7,A46U G61A A66U G113U C123G U129A,-5.08
8,G45U G47C C85A C88U,-4.69
9,A46U A100U,-1.69
10,A46U G48A U87A G120A U129C,-0.344
11,G45U C56G G63C C101U,-5.92
12,G45A G110A,-1.34
13,G45U G113U,-3.73
14,A46U C101A U130G,-2.84
15,G45U U96C,-1.43
16,G47C C56U,-1.01
17,G47C U54G G58C G69U C123G,0.703
18,A46U G47A A50G G60A,-3.56
19,G45U C82U,-1.52
20,G47C G61A U87A U92A,-5.03
21,A46U A84U,-1.28
